Laboratory results: patent US20240294593A1 (Genentech, published 2024)
Residue numbers refer to the chain shown, from its start. Names and notes keep the numbering of the source. Values belong to the binder of their own block, whether it stands above or below them.

Legend:
[1] = biological target: T1, cynomolgus PD-1-His (cynomolgus monkey); assay: sensorgram, panel Cyno PD-1; Octet per legend paragraph 199, axes printed as Response (RU) against Time
T1 chain: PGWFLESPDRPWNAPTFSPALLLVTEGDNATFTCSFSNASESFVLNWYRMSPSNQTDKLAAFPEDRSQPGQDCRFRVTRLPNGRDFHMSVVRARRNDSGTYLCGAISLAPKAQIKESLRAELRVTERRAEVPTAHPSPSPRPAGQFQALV

[2] = biological target: T2, human PD-1-His (human, UniProt Q15116 25-167, limits assumed); assay: sensorgram, panel Human PD-1; Octet per legend paragraph 199, axes printed as Response (RU) against Time (s)
T2 construct: Antigen of the Octet assays; not shown: His tag

[3] = biological target: T1, cynomolgus PD-1-His; assay: sensorgram, panel Cyno PD-1; Octet per legend paragraph 199, axes printed as Response (RU) against Time
[4] = biological target: T2, human PD-1-His; assay: sensorgram, panel Human PD-1; Octet per legend paragraph 199, axes printed as Response (RU) against Time (s); remark: listed apart in the source
[5] = biological target: T2, human PD-1-His; assay: Octet (BLI); antibody captured on anti-human Fc (AHC) biosensors and dipped into multiple concentrations of human PD-1-His
[6] = biological target: T2, human PD-1-His; assay: Octet (BLI), AHC biosensors capture the bivalent mAb, dipped into multiple concentrations of PD-1; KDapp per legend
Excerpt: (§1) In particular, anti-human IgG-Fc (AHC) biosensors were used to capture the test articles and dipped into multiple concentrations of PD-1.

[7] = biological target: T2, human PD-1-His; assay: Octet (BLI), AHC capture of the bivalent mAb, PD-1 in solution
Excerpt: as §1

[8] = biological target: T2, human PD-1-His; assay: Octet (BLI); XENP29706 loaded on the biosensor, analyte Sample ID XENP15593 at 300, 30, 3 nM; KD (M) printed in the legend under the plot
[9] = biological target: T1, cynomolgus PD-1-His; assay: Octet (BLI); antibody captured on anti-human Fc (AHC) biosensors and dipped into multiple concentrations of cynomolgus PD-1-His
[10] = biological target: T2, human PD-1-His; assay: Octet (BLI) sensorgram; XENP29710 loaded on the biosensor, analyte Sample ID XENP15593 at 300, 30, 3 nM [Cont.]
[11] = biological target: T2, human PD-1-His; assay: Octet affinity screen; bivalent IgG1 format; reference mAb C[PD-1]_H1L1
[12] = biological target: T2, human PD-1-His; assay: Octet
[13] = biological target: T2, human PD-1-His; assay: Octet (BLI) sensorgram; XENP29712 loaded on the biosensor, analyte Sample ID XENP15593 at 300, 30, 3 nM [Cont.]
[14] = biological target: T2, human PD-1-His; assay: Octet (BLI) sensorgram; XENP29711 loaded on the biosensor, analyte Sample ID XENP15593 at 300, 30, 3 nM [Cont.]
[15] = biological target: T2, human PD-1-His; assay: Octet (BLI) sensorgram; XENP29708 loaded on the biosensor, analyte Sample ID XENP15593 at 300, 30, 3 nM [Cont.]

T2 sequence (Q15116 25-167 limits assumed): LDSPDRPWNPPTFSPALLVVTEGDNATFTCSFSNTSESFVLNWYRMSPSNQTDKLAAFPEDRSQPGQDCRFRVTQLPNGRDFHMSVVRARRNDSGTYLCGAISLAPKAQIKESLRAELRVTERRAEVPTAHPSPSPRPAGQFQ

B3: XENP28519 (humanized mAb A, bivalent mAb) (antibody, human IgG1, kappa, V domains shown)
VH: QVQLQESGPGLVKPSQTLSLTCTVSGHSITSDYAWNWIRQPPGKKLEWIGYISYSGYTTYNPSLKSRVTISRDTSKNQFSLKLSSVTAADTAVYFCARDLDYGPWFAYWGQGTLVTVSS
VL: DIQMTQSPSSLSASVGDRVTITCRASENIHNYLAWYQQKPGKSPKLLVYNVKTLADGVPSRFSGSGSGTDYTLTISSLQPEDFATYYCQHFWSSPWTFGGGTKVEIKR
- Kd [5]: 11.9 nM

B6: XENP28537 (humanized variant of mAb C, bivalent human IgG1) (antibody, V domains shown)
VH: EVQLVESGGGLVQPGGSLRLSCAASGFTFSSFGMHWVRQAPGKGLEWVSYISSGSSIIYYADSVKGRFTISRDNAKNSLYLQMNSLRAEDTAVYYCARGGRLVWSPDYWGQGTLVTVSS
VL: DIVMTQSPLSLPVTPGEPASISCRSSQSLLNSGNQKNYLTWYLQKPGQPPQLLIYWASTRESGVPDRFTGSGSGTDFTLKISRVEAEDVGVYYCQNDYSYPFTFGSGTKLEIKR
notes: Human IgG1 with E233P/L234V/L235A/G236del/S267K
- Kd [9]: 42 nM

B7: H1.223_L1.1 (XENP32839) (antibody, human IgG1, kappa, V domains shown)
VH: B6 VH with R101H, L102Q, W104F
VL: DIVMTQSPDSLAVSLGERATINCKSSQSLLHSGNQKNYLTWYQQKPGQPPKLLIYWASTRESGVPDRFTGSGSGTDFTLTISSLQAEDVAVYYCQNDYSYPFTFGSGTKLEIKR
notes: VH substitution R109H/L110Q/W112F (Xencor #); R97H/L98Q/W100F (Kabat); also called mAb C[PD1]_H1.223_L1.1_IgG1_PVA_/S267K
- Kd [6]: 35.4 nM
- koff [7]: 0.00436 s⁻¹
- kon [7]: 123000 M⁻¹ s⁻¹

B10: H1.224_L1.1 (XENP32840) (antibody, human IgG1, kappa, V domains shown)
VH: B6 VH with L102R, V103L, W104F
VL: B7 VL
notes: VH substitution L110R/V111L/W112F (Xencor #); L98R/V99L/W100F (Kabat); also called mAb C[PD1]_H1.224_L1.1_IgG1_PVA_/S267K
- Kd [6]: 70 nM
- koff [7]: 0.00416 s⁻¹
- kon [7]: 59400 M⁻¹ s⁻¹

B11: XENP28536 (mAb C[PD-1]_H1L1, bivalent human IgG1) (antibody, V domains shown)
VH: B6 VH
VL: DIVMTQSPDSLAVSLGERATINCKSSQSLLNSGNQKNYLTWYQQKPGQPPKLLIYWASTRESGVPDRFTGSGSGTDFTLTISSLQAEDVAVYYCQNDYSYPFTFGSGTKLEIK
notes: Bivalent human IgG1 with E233P/L234V/L235A/G236del/S267K
- Kd [9]: 35.8 nM

B13: mAb C[PD-1]_H1_L1.1 (bivalent IgG1) (antibody, V domains shown)
VH: B6 VH
VL: B7 VL
notes: Bivalent IgG1 format with E233P/L234V/L235A/G236_/S267K; copies: 2 + 2
- fold improved affinity over WT [11]: > 2 fold
- Kd [12]: 5.46 nM
- koff [12]: 0.000532 s⁻¹
- kon [12]: 97300 M⁻¹ s⁻¹

B15: XENP29711 (W100Q) (antibody, V domains shown)
VH: B6 VH with W104Q
VL: B7 VL with H31N
notes: the panel label gives the substitution; also called mAb C[PD-1]_H1L1 W100Q (Kabat) variant; copies: 2 + 2
- binding result [14]: no binding (tested: 300 nM)

B16: XENP29708 (W100Y) (antibody, V domains shown)
VH: B6 VH with W104Y
VL: B7 VL with H31N
notes: the panel label gives the substitution; also called mAb C[PD-1]_H1L1 W100Y (Kabat) variant; copies: 2 + 2
- binding result [15]: no binding (tested: 300 nM)

B17: H1.221_L1.1 (XENP32837) (antibody, human IgG1, kappa, V domains shown)
VH: B6 VH with L102R, W104F
VL: B7 VL
notes: VH substitution L110R/W112F (Xencor #); L98R/W100F (Kabat); also called mAb C[PD1]_H1.221_L1.1_IgG1_PVA_/S267K
- Kd [6]: 35.1 nM
- koff [7]: 0.00477 s⁻¹
- kon [7]: 136000 M⁻¹ s⁻¹

B19: XENP28539 (humanized variant of mAb C, bivalent human IgG1) (antibody, V domains shown)
VH: B6 VH with Q13K, S49G, S63P, A75S, S78T, R87K, A88T
VL: B6 VL
notes: as for B6
- binding result [5]: no binding

The remaining lines, values ahead:

- Kd [1]: 4.5 nM
- Kd [2]: 4.3 nM
B1: XENP31986 (mAb C H1_L1.1 x IL-15[D30N/E64Q/N65D/N71Q/N79Q/N112Q] w/(G4A) Linker) (Fc fusion)
chain: ITCPPPMSVEHADIWVKSYSLYSRERYICNSGFKRKAGTSSLTECVLNKATNVAHWTTPSLKCIRGGGGAGGGGAGGGGAGGGGAGGGGANWVNVISDLKKIEDLIQSMHIDATLYTESNVHPSCKVTAMKCFLLELQVISLESGDASIHDTVQDLIILAQNSLSSNGQVTESGCKECEELEEKNIKEFLQSFVHIVQMFIQTSEPKSSDKTHTCPPCPAPPVAGPSVFLFPPKPKDTLMISRTPEVTCVVVDVKHEDPEVKFNWYVDGVEVHNAKTKPREEEYNSTYRVVSVLTVLHQDWLNGKEYKCKVSNKALPAPIEKTISKAKGQPREPQVYTLPPSREEMTKNQVSLTCDVSGFYPSDIAVEWESDGQPENNYKTTPPVLDSDGSFFLYSKLTVDKSRWEQGDVFSCSVLHEALHSHYTQKSLSLSPGK
heavy: EVQLVESGGGLVQPGGSLRLSCAASGFTFSSFGMHWVRQAPGKGLEWVSYISSGSSIIYYADSVKGRFTISRDNAKNSLYLQMNSLRAEDTAVYYCARGGRLVWSPDYWGQGTLVTVSSASTKGPSVFPLAPSSKSTSGGTAALGCLVKDYFPEPVTVSWNSGALTSGVHTFPAVLQSSGLYSLSSVVTVPSSSLGTQTYICNVNHKPSNTKVDKKVEPKSCDKTHTCPPCPAPPVAGPSVFLFPPKPKDTLMISRTPEVTCVVVDVKHEDPEVKFNWYVDGVEVHNAKTKPREEQYNSTYRVVSVLTVLHQDWLNGKEYKCKVSNKALPAPIEKTISKAKGQPREPQVYTLPPSREQMTKNQVKLTCLVKGFYPSDIAVEWESNGQPENNYKTTPPVLDSDGSFFLYSKLTVDKSRWQQGNVFSCSVLHEALHSHYTQKSLSLSPGK
light: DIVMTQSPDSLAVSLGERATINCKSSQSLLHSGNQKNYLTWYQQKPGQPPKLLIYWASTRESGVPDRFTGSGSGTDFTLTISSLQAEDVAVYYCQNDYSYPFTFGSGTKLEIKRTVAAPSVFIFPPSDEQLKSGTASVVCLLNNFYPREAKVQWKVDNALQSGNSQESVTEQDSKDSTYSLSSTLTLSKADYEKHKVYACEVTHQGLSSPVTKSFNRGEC
notes: scIL-15/Rα x Fab format

- Kd [3]: 2.7 nM
- Kd [4]: 2.8 nM
B2: XENP32435 (PD-1-targeted IL-15/Rα-Fc having Trp engineered/affinity repaired mAb C[PD1]_H1.176_L1.140 and IL-15[D30N/E64Q/N65D/N71Q/N79Q/N112Q]) (Fc fusion)
chain: B1 chain
heavy: B1 heavy with F32L, W104F
light: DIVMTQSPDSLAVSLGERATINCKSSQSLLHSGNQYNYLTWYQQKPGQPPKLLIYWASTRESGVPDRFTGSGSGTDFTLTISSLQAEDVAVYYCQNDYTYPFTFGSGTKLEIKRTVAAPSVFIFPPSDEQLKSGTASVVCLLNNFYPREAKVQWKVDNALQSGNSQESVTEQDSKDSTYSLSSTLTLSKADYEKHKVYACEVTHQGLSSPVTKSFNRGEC

- Kd [6]: 39.9 nM
- koff [7]: 0.00557 s⁻¹
- kon [7]: 140000 M⁻¹ s⁻¹
B4: H1.220_L1.1 (XENP32836) (antibody, human IgG1, kappa, V domains shown)
VH: B6 VH with V103Y, W104F
VL: B7 VL
notes: VH substitution V111Y/W112F (Xencor #); V99Y/W100F (Kabat); also called mAb C[PD1]_H1.220_L1.1_IgG1_PVA_/S267K

- Kd [8]: 309 nM
B5: XENP29706 (W100F) (antibody, V domains shown)
VH: B6 VH with W104F
VL: B7 VL with H31N
notes: the panel label gives the substitution; also called mAb C[PD-1]_H1L1 W100F (Kabat) variant; copies: 2 + 2

- Kd [6]: 49.4 nM
- koff [7]: 0.00565 s⁻¹
- kon [7]: 114000 M⁻¹ s⁻¹
B8: H1.222_L1.1 (XENP32838) (antibody, human IgG1, kappa, V domains shown)
VH: B6 VH with W104L, P106S
VL: B7 VL
notes: VH substitution W112L/P114S (Xencor #) but W100F/P100bS in Kabat; also called mAb C[PD1]_H1.222_L1.1_IgG1_PVA_/S267K

- binding result [10]: no binding (tested: 300 nM)
B9: XENP29710 (W100H) (antibody, V domains shown)
VH: B6 VH with W104H
VL: B7 VL with H31N
notes: the panel label gives the substitution; also called mAb C[PD-1]_H1L1 W100H (Kabat) variant; copies: 2 + 2

- fold improved affinity over WT [11]: > 2 fold
- Kd [12]: 10.8 nM
- koff [12]: 0.00165 s⁻¹
- kon [12]: 153000 M⁻¹ s⁻¹
B12: mab_C[PD-1]_H1_L1.3 (bivalent IgG1) (antibody, V domains shown)
VH: B6 VH
VL: B7 VL with H31S
notes: as for B13

- binding result [13]: no binding (tested: 300 nM)
B14: XENP29712 (W100S) (antibody, V domains shown)
VH: B6 VH with W104S
VL: B7 VL with H31N
notes: the panel label gives the substitution; also called mAb C[PD-1]_H1L1 W100S (Kabat) variant; copies: 2 + 2

- binding result [5]: no binding
B18: XENP28538 (humanized variant of mAb C, bivalent human IgG1) (antibody, V domains shown)
VH: B6 VH with Q13K, S49G, S63P, A75S, S78T, R87K, A88T
VL: B7 VL with H31N
notes: as for B6
